Values of other authors in patent publication US6844322B2, “Method for induced lactation” (Monsanto Technology LLC, priority 2000, dated 2005).

Tested on: cows
Details: somatotropin included in the induction protocol (Kensinger et al., 1998)

B1: POSILAC® somatotropin: Sustained-release bovine somatotropin, Monsanto (protein, UniProt P01246 27-217, looked up)
Somatotropin: AFPAMSLSGLFANAVLRAQHLHQLAADTFKEFERTYIPEGQRYSIQNTQVAFCFSETIPAPTGKNEAQQKSDLELLRISLLLIQSWLGPLQFLSRVFTNSLVFGTSDRVYEKLKDLEEGILALMRELEDGTPRAGQILKQTYDKFDTNMRSDDALLKNYGLLSCFRKDLHKTETYLRVMKCRRFGEASCAF
modifications: sustained-release formulation
notes: Sustained-release bovine somatotropin, Monsanto
In the case of B1, the “increase in milk yield compared to cows treated with steroids alone” value is listed as 17%.
